Tests used:
human C5a [1] = target: T1, human C5a (human, UniProt P01031 678-751); assay: cell-based or functional assay
T1 sequence: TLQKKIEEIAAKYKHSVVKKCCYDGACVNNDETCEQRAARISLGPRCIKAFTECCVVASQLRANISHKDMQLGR

human C5a [2] = target: T1, human C5a; assay: cell-based or functional assay; remark: listed apart in the source
human C5a [3] = target: T1, human C5a; assay: method not stated (Table 3, column Affinity)

B1: INab308 (antibody, V domains shown)
VH: QVQLQQSGPQLVRPGTSVKISCKASGYSFTTFWMDWVKQRPGQGLEWIGRIDPSDSESRLDQRFKDRATLTVDKSSSTVYMQLSSPTSEDSAVYYCARGNDGYYGFAYWGQGTLVTVSS
VL: DIVLTQSPASLAVSLGQRATISCKASQSVDYDGDSYMKWYQQKPGQPPKLLIYAASNLQSGIPARFSGSGSGTDFTLNIHPVEEEDAATYYCQQSNEDPYTFGGGTKLEIK
notes: Mouse monoclonal antibody from a hybridoma (BALB/c mice immunized with recombinant human C5a), purified from ascites on protein A; said to be bivalent
blocking activity to C5a bioactivity (C5a-induced lysozyme release assay), molar ratio of antibody to C5a 1:2 (human C5a [1]): 94%
Blocking activity (inhibition of C5a-induced lysozyme release from human whole blood cells) at a ratio of Ab to C5a of ½:1 (human C5a [2]): ≥ 90%
Kd (human C5a [3]): 0.5 nM

B2: INab708 (antibody, V domains shown)
VH: VQLLESGAELMKPGASVKISCKATGNTFSGYWIEWVKQRPGHGLEWIGEILPGSGSTNYNEKFKGKATLTADTSSNTAYMQLSSLTSEDSAVYYCTRRGLYDGSSYFAYWGQGTLVTVSA
VL: DIVLTQSPASLAVSLGQRATISCKASQSVDYDGDSYMNWYQQKPGQPPKLLIYAASNLGSGIPARFSGSGSGTDFTLNIHPVEEEVAATYYCQQNNEDPLTFGAGTLLELK
notes: as for B1
blocking activity to C5a bioactivity (C5a-induced lysozyme release assay), molar ratio of antibody to C5a 1:2 (human C5a [1]): 100%
Blocking activity (inhibition of C5a-induced lysozyme release from human whole blood cells) at a ratio of Ab to C5a of ½:1 (human C5a [2]): ≥ 90%
Kd (human C5a [3]): 0.51 nM

From US20150266949A1 (INFLARX, published 2015)
